This note sets out measurements from PMC6862464, “Structural Insights into AQP2 Targeting to Multivesicular Bodies” (International Journal of Molecular Sciences, 2019).

First the molecules themselves.
T1: human aquaporin 2 (AQP2), wild-type (human, UniProt P41181 1-271, cysteine residues labeled with C5 maleimide Alexa 488; dephosphorylated with alkaline phosphatase before labeling)
T1 construct: concentrations and molar ratios seem to count monomers; His-tag is called uncleavable; also called WT; labeled AQP2; source: Pichia pastoris, purified (HisTrap, SEC) in OGNG; not shown: His-tag, N-terminal, kept
T1 sequence (looked up): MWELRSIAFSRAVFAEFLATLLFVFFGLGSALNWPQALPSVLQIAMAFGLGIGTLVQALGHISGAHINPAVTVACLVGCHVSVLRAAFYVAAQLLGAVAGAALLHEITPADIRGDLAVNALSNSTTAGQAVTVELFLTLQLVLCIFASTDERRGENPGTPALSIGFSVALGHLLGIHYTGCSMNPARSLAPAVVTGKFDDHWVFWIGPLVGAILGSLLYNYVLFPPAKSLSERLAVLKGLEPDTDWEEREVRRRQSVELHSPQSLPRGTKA

B1: full-length human lysosomal trafficking regulator-interacting protein 5 (FL-LIP5) (natural protein)
chain: MAALAPLPPLPAQFKSIQHHLRTAQEHDKRDPVVAYYCRLYAMQTGMKIDSKTPECRKFLSKLMDQLEALKKQLGDNEAITQEIVGCAHLENYALKMFLYADNEDRAGRFHKNMIKSFYTASLLIDVITVFGELTDENVKHRKYARWKATYIHNCLKNGETPQAGPVGIEEDNDIEENEDAGAASLPTQPTQPSSSSTYDPSNMPSGNYTGIQIPPGAHAPANTPAEVPHSTGVASNTIQPTPQTIPAIDPALFNTISQGDVRLTPEDFARAQKYCKYAGSALQYEDVSTAVQNLQKALKLLTTGREDYDIPTT
notes: spacer between the last LIP5 residue and the TEV protease site that precedes the His tag; same tag, TEV site and linker as ND-LIP5; No TEV cleavage is described; also called full-length LIP5; wild-type LIP5; source: E. coli BL21*(DE3), purified (HisTrap, SEC)
B2: N-terminal domain of human LIP5 (ND-LIP5, residues 1-162) (domain or fragment)
chain: MAALAPLPPLPAQFKSIQHHLRTAQEHDKRDPVVAYYCRLYAMQTGMKIDSKTPECRKFLSKLMDQLEALKKQLGDNEAITQEIVGCAHLENYALKMFLYADNEDRAGRFHKNMIKSFYTASLLIDVITVFGELTDENVKHRKYARWKATYIHNCLKNGETPDYDIPTT
notes: LIP5, human, N-terminal domain, residues 1-162; spacer between the last ND-LIP5 residue and the TEV protease site that precedes the His tag; TEV site between spacer and His tag; no cleavage described; source: E. coli BL21*(DE3), purified (HisTrap, SEC)
B3: human AQP2 E241A (natural protein, UniProt P41181 1-271, looked up)
chain: MWELRSIAFSRAVFAEFLATLLFVFFGLGSALNWPQALPSVLQIAMAFGLGIGTLVQALGHISGAHINPAVTVACLVGCHVSVLRAAFYVAAQLLGAVAGAALLHEITPADIRGDLAVNALSNSTTAGQAVTVELFLTLQLVLCIFASTDERRGENPGTPALSIGFSVALGHLLGIHYTGCSMNPARSLAPAVVTGKFDDHWVFWIGPLVGAILGSLLYNYVLFPPAKSLSERLAVLKGLAPDTDWEEREVRRRQSVELHSPQSLPRGTKA
modifications: cysteine residues labeled with C5 maleimide Alexa 488; dephosphorylated with alkaline phosphatase before labeling
notes: Mutant of m1; source: Pichia pastoris, purified (HisTrap, SEC) in OGNG; not shown: His-tag, N-terminal, kept
B4: human AQP2 K238A (natural protein, UniProt P41181 1-271, looked up)
chain: MWELRSIAFSRAVFAEFLATLLFVFFGLGSALNWPQALPSVLQIAMAFGLGIGTLVQALGHISGAHINPAVTVACLVGCHVSVLRAAFYVAAQLLGAVAGAALLHEITPADIRGDLAVNALSNSTTAGQAVTVELFLTLQLVLCIFASTDERRGENPGTPALSIGFSVALGHLLGIHYTGCSMNPARSLAPAVVTGKFDDHWVFWIGPLVGAILGSLLYNYVLFPPAKSLSERLAVLAGLEPDTDWEEREVRRRQSVELHSPQSLPRGTKA
modifications: cysteine residues labeled with C5 maleimide Alexa 488; dephosphorylated with alkaline phosphatase before labeling
notes: as for B3
B5: human AQP2 L234A (natural protein, UniProt P41181 1-271, looked up)
chain: MWELRSIAFSRAVFAEFLATLLFVFFGLGSALNWPQALPSVLQIAMAFGLGIGTLVQALGHISGAHINPAVTVACLVGCHVSVLRAAFYVAAQLLGAVAGAALLHEITPADIRGDLAVNALSNSTTAGQAVTVELFLTLQLVLCIFASTDERRGENPGTPALSIGFSVALGHLLGIHYTGCSMNPARSLAPAVVTGKFDDHWVFWIGPLVGAILGSLLYNYVLFPPAKSLSERAAVLKGLEPDTDWEEREVRRRQSVELHSPQSLPRGTKA
modifications: cysteine residues labeled with C5 maleimide Alexa 488; dephosphorylated with alkaline phosphatase before labeling
notes: as for B3
B6: human AQP2 L230A (natural protein, UniProt P41181 1-271, looked up)
chain: MWELRSIAFSRAVFAEFLATLLFVFFGLGSALNWPQALPSVLQIAMAFGLGIGTLVQALGHISGAHINPAVTVACLVGCHVSVLRAAFYVAAQLLGAVAGAALLHEITPADIRGDLAVNALSNSTTAGQAVTVELFLTLQLVLCIFASTDERRGENPGTPALSIGFSVALGHLLGIHYTGCSMNPARSLAPAVVTGKFDDHWVFWIGPLVGAILGSLLYNYVLFPPAKSASERLAVLKGLEPDTDWEEREVRRRQSVELHSPQSLPRGTKA
modifications: cysteine residues labeled with C5 maleimide Alexa 488; dephosphorylated with alkaline phosphatase before labeling
notes: as for B3
B7: human AQP2 R233A (natural protein, UniProt P41181 1-271, looked up)
chain: MWELRSIAFSRAVFAEFLATLLFVFFGLGSALNWPQALPSVLQIAMAFGLGIGTLVQALGHISGAHINPAVTVACLVGCHVSVLRAAFYVAAQLLGAVAGAALLHEITPADIRGDLAVNALSNSTTAGQAVTVELFLTLQLVLCIFASTDERRGENPGTPALSIGFSVALGHLLGIHYTGCSMNPARSLAPAVVTGKFDDHWVFWIGPLVGAILGSLLYNYVLFPPAKSLSEALAVLKGLEPDTDWEEREVRRRQSVELHSPQSLPRGTKA
modifications: cysteine residues labeled with C5 maleimide Alexa 488; dephosphorylated with alkaline phosphatase before labeling
notes: as for B3
B8: human AQP2 L237A (natural protein, UniProt P41181 1-271, looked up)
chain: MWELRSIAFSRAVFAEFLATLLFVFFGLGSALNWPQALPSVLQIAMAFGLGIGTLVQALGHISGAHINPAVTVACLVGCHVSVLRAAFYVAAQLLGAVAGAALLHEITPADIRGDLAVNALSNSTTAGQAVTVELFLTLQLVLCIFASTDERRGENPGTPALSIGFSVALGHLLGIHYTGCSMNPARSLAPAVVTGKFDDHWVFWIGPLVGAILGSLLYNYVLFPPAKSLSERLAVAKGLEPDTDWEEREVRRRQSVELHSPQSLPRGTKA
modifications: cysteine residues labeled with C5 maleimide Alexa 488; dephosphorylated with alkaline phosphatase before labeling
notes: as for B3

The target of the first assay is T1, human aquaporin 2 (AQP2), wild-type. As to the kind of experiment: other fluorescence titration; stoichiometry: labeled AQP2 kept 20 times above the Kd, LIP5 added to a molar LIP5:AQP2 ratio between 0 and 2; saturation point from the intercept of two linear fits; same buffers. To be noted: both partners purified.
For B1, the “stoichiometry N” value is 0.42 molar ratio FL-LIP5:AQP2.

In the case of B2, the “stoichiometry N” value was 0.29 molar ratio ND-LIP5:AQP2.

For a further assay the target is unchanged. Put plainly: other fluorescence titration; Alexa 488-labeled, dephosphorylated AQP2 (around 1 uM) in the cuvette, titrated with unlabeled LIP5; total fluorescence; 20 mM Tris-HCl pH 8, 300 mM NaCl, 0.2% OGNG; triplicate titrations. To be noted: both partners purified.
For B2, the Kd (usually the constant that tells how readily two partners part at equilibrium) was determined as 64.4 nM.

For the next assay, the target named is B1. Described as above. The note with it: both partners purified.
As to B3, the Kd was 700 nM.

In turn, B4 registered a Kd of 552 nM.

B5 returned a Kd of 126 nM.

With B6, binding was characterised by a dissociation constant (Kd) of 156 nM.

Regarding B7, the Kd turned out to be 487 nM.

In turn, B8 returned a Kd of 535 nM.
